B1: ZNF649 (parent)
chain: YQAGKPDALTKLEQGEPLWTLEDE
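Also: lentivirally expressed fusions sorted by FACS into six bins by GFP to DsRed ratio, PSI derived from sequencing read proportions per bin multiplied by bin number.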

Variants of: B1
Test: protein stability index of a GFP-peptide fusion (GPS, HEK-293T) (PSI 1-6); higher = more stable
Conditions: c terminus: a fixed tail appended
YQAGKPDAYTKLEQGEPLWTLEDE [L9Y] gave a protein stability index of 4.54. Variant YQAGKPDAKTKLEQGEPLWTLEDE [L9K] has a protein stability index of 4.86. YQAGKPDANTKLEQGEPLWTLEDE [L9N] gave a protein stability index of 3.99. With YQAGKPDAETKLEQGEPLWTLEDE [L9E] the protein stability index was 4.93. With YQAGKPDAFTKLEQGEPLWTLEDE [L9F] the protein stability index was 4.01. In the case of YQAGKPDAVTKLEQGEPLWTLEDE [L9V], the protein stability index is reported as 4.62. With YQAGKPDAPTKLEQGEPLWTLEDE [L9P] the protein stability index was 4.38. YQAGKPDACTKLEQGEPLWTLEDE [L9C] showed a protein stability index of 4.63. With YQAGKPDAGTKLEQGEPLWTLEDE [L9G] the protein stability index was 4.55. YQAGKPDATTKLEQGEPLWTLEDE [L9T] gave a protein stability index of 4.71. Work on YQAGKPDAWTKLEQGEPLWTLEDE [L9W] yielded a protein stability index of 1.86. YQAGKPDASTKLEQGEPLWTLEDE [L9S] gave a protein stability index of 4.9. For YQAGKPDAMTKLEQGEPLWTLEDE [L9M], the protein stability index was 3.61. Work on YQAGKPDARTKLEQGEPLWTLEDE [L9R] yielded a protein stability index of 4.29. Work on YQAGKPDAATKLEQGEPLWTLEDE [L9A] yielded a protein stability index of 4.95. Variant YQAGKPDADTKLEQGEPLWTLEDE [L9D] has a protein stability index of 5.48. YQAGKPDAQTKLEQGEPLWTLEDE [L9Q] showed a protein stability index of 4.67. For YQAGKPDAITKLEQGEPLWTLEDE [L9I], the protein stability index was 4.69. YQAGKPDAHTKLEQGEPLWTLEDE [L9H] gave a protein stability index of 4.04. For YQAGKPDALTKLEPGEPLWTLEDE [Q14P], the protein stability index was 4.63. YQAGKPDALTKLESGEPLWTLEDE [Q14S] showed a protein stability index of 4.13. YQAGKPDALTKLECGEPLWTLEDE [Q14C] showed a protein stability index of 4.66. YQAGKPDALTKLEYGEPLWTLEDE [Q14Y] gave a protein stability index of 3.53. With YQAGKPDALTKLEMGEPLWTLEDE [Q14M] the protein stability index was 4.17. YQAGKPDALTKLEDGEPLWTLEDE [Q14D] gave a protein stability index of 4.67. YQAGKPDALTKLERGEPLWTLEDE [Q14R] gave a protein stability index of 3.8. With YQAGKPDALTKLEKGEPLWTLEDE [Q14K] the protein stability index was 4.28. Work on YQAGKPDALTKLEFGEPLWTLEDE [Q14F] yielded a protein stability index of 3.89. For YQAGKPDALTKLETGEPLWTLEDE [Q14T], the protein stability index was 4.71. For YQAGKPDALTKLEVGEPLWTLEDE [Q14V], the protein stability index was 4.71. YQAGKPDALTKLEHGEPLWTLEDE [Q14H] showed a protein stability index of 4.14. For YQAGKPDALTKLEAGEPLWTLEDE [Q14A], the protein stability index was 4.11. With YQAGKPDALTKLELGEPLWTLEDE [Q14L] the protein stability index was 4.07. Variant YQAGKPDALTKLEGGEPLWTLEDE [Q14G] has a protein stability index of 4.92. Work on YQAGKPDALTKLENGEPLWTLEDE [Q14N] yielded a protein stability index of 4.07. YQAGKPDALTKLEWGEPLWTLEDE [Q14W] showed a protein stability index of 4.44. YQAGKPDALTKLEIGEPLWTLEDE [Q14I] showed a protein stability index of 4.44. YQAGKPDALTKLEQGEILWTLEDE [P17I] gave a protein stability index of 3.22. In the case of YQAGKPDALTKLEQGEALWTLEDE [P17A], the protein stability index is reported as 4.86. In the case of YQAGKPDALTKLEQGEWLWTLEDE [P17W], the protein stability index is reported as 3.36. With YQAGKPDALTKLEQGEELWTLEDE [P17E] the protein stability index was 4.21. For YQAGKPDALTKLEQGENLWTLEDE [P17N], the protein stability index was 4.41. For YQAGKPDALTKLEQGERLWTLEDE [P17R], the protein stability index was 3.94. YQAGKPDALTKLEQGEKLWTLEDE [P17K] showed a protein stability index of 3.97. YQAGKPDALTKLEQGELLWTLEDE [P17L] gave a protein stability index of 3.95. YQAGKPDALTKLEQGEQLWTLEDE [P17Q] showed a protein stability index of 4.47. With YQAGKPDALTKLEQGEHLWTLEDE [P17H] the protein stability index was 4.1. YQAGKPDALTKLEQGECLWTLEDE [P17C] gave a protein stability index of 3.46. For YQAGKPDALTKLEQGEFLWTLEDE [P17F], the protein stability index was 3.68. YQAGKPDALTKLEQGEMLWTLEDE [P17M] showed a protein stability index of 4.1. Variant YQAGKPDALTKLEQGEGLWTLEDE [P17G] has a protein stability index of 3.47. With YQAGKPDALTKLEQGEYLWTLEDE [P17Y] the protein stability index was 3.23. YQAGKPDALRKLEQGEPLWTLEDE [T10R] gave a protein stability index of 3.97. For YQAGKPDALDKLEQGEPLWTLEDE [T10D], the protein stability index was 4.91. YQAGKPDALMKLEQGEPLWTLEDE [T10M] showed a protein stability index of 4.22. Variant YQAGKPDALNKLEQGEPLWTLEDE [T10N] has a protein stability index of 4.41. Variant YQAGKPDALWKLEQGEPLWTLEDE [T10W] has a protein stability index of 2.31. YQAGKPDALCKLEQGEPLWTLEDE [T10C] showed a protein stability index of 4.28. Work on YQAGKPDALAKLEQGEPLWTLEDE [T10A] yielded a protein stability index of 4.88. In the case of YQAGKPDALVKLEQGEPLWTLEDE [T10V], the protein stability index is reported as 4.62. With YQAGKPDALLKLEQGEPLWTLEDE [T10L] the protein stability index was 4.39. In the case of YQAGKPDALYKLEQGEPLWTLEDE [T10Y], the protein stability index is reported as 4.58. For YQAGKPDALQKLEQGEPLWTLEDE [T10Q], the protein stability index was 4.55. In the case of YQAGKPDALSKLEQGEPLWTLEDE [T10S], the protein stability index is reported as 4.62. YQAGKPDALIKLEQGEPLWTLEDE [T10I] gave a protein stability index of 4.02. In the case of YQAGKPDALEKLEQGEPLWTLEDE [T10E], the protein stability index is reported as 4.5. YQAGKPDALPKLEQGEPLWTLEDE [T10P] showed a protein stability index of 4.97. YQAGKPDALKKLEQGEPLWTLEDE [T10K] showed a protein stability index of 3.15. For YQAGKPDALGKLEQGEPLWTLEDE [T10G], the protein stability index was 3.69. YQAGKPDALTKLYQGEPLWTLEDE [E13Y] showed a protein stability index of 3.12. With YQAGKPDALTKLVQGEPLWTLEDE [E13V] the protein stability index was 4.21. Variant YQAGKPDALTKLRQGEPLWTLEDE [E13R] has a protein stability index of 3.26. YQAGKPDALTKLTQGEPLWTLEDE [E13T] showed a protein stability index of 3.86. With YQAGKPDALTKLSQGEPLWTLEDE [E13S] the protein stability index was 4. YQAGKPDALTKLIQGEPLWTLEDE [E13I] gave a protein stability index of 3.15. Work on YQAGKPDALTKLHQGEPLWTLEDE [E13H] yielded a protein stability index of 4.25. With YQAGKPDALTKLFQGEPLWTLEDE [E13F] the protein stability index was 2.6. Work on YQAGKPDALTKLQQGEPLWTLEDE [E13Q] yielded a protein stability index of 2.87. In the case of YQAGKPDALTKLLQGEPLWTLEDE [E13L], the protein stability index is reported as 3.14. Work on YQAGKPDALTKLPQGEPLWTLEDE [E13P] yielded a protein stability index of 4.18. YQAGKPDALTKLKQGEPLWTLEDE [E13K] showed a protein stability index of 3.34. For YQAGKPDALTKLCQGEPLWTLEDE [E13C], the protein stability index was 3.2. Work on YQAGKPDALTKLWQGEPLWTLEDE [E13W] yielded a protein stability index of 1.98. Work on YQAGKPDALTKLMQGEPLWTLEDE [E13M] yielded a protein stability index of 3.45. In the case of YQAGKPDALTKLGQGEPLWTLEDE [E13G], the protein stability index is reported as 3.31. Variant YQAGKPDALTKLNQGEPLWTLEDE [E13N] has a protein stability index of 4.16. Work on YQAGKPDALTKLDQGEPLWTLEDE [E13D] yielded a protein stability index of 4.18. In the case of YQAGKPDALTKLAQGEPLWTLEDE [E13A], the protein stability index is reported as 4.2. YQAGKPDALTKLEQGQPLWTLEDE [E16Q] gave a protein stability index of 3.76. YQAGKPDALTKLEQGIPLWTLEDE [E16I] showed a protein stability index of 2.1. For YQAGKPDALTKLEQGDPLWTLEDE [E16D], the protein stability index was 4.94. Variant YQAGKPDALTKLEQGHPLWTLEDE [E16H] has a protein stability index of 3.32. With YQAGKPDALTKLEQGNPLWTLEDE [E16N] the protein stability index was 3.73. For YQAGKPDALTKLEQGTPLWTLEDE [E16T], the protein stability index was 3.97.
